Data taken from US20230374502A1.

Target: SpCas9 (Streptococcus pyogenes Cas9) (Streptococcus pyogenes) (UniProt Q99ZW2)
Experiment: cell-based or functional assay

Which results are given for “Acx105 (AcrIIA4, wild type; AcrIIA4_lmo)”?
indel frequency (TIDE), OFF - R1, sample E2A-F2A - Acx-105: 1%; indel frequency (TIDE), OFF - R1, sample EMCV IRESV5: 6.6%; indel frequency (TIDE), OFF - R1, sample EMCV IRESV10: 5%; indel frequency (TIDE), OFF - R1, sample EMCV IRESV15: 15.8%; indel frequency (TIDE), OFF - R1, sample EMCV IRESV21: 12.2%; indel frequency (TIDE), OFF - R1, sample EMCV WT IRES: 2.3%; indel frequency (TIDE), OFF - R1, sample F2A - Acx-105: 0.8%; indel frequency (TIDE), OFF - R1, sample T2A - Acx-105: 1.3%; indel frequency (TIDE), OFF - R1, sample T2A-E2A-F2A - Acx-105: 0.7%; indel frequency (TIDE), ON - R1, sample E2A-F2A - Acx-105: 2.7%; indel frequency (TIDE), ON - R1, sample EMCV IRESV5: 12.5%; indel frequency (TIDE), ON - R1, sample EMCV IRESV10: 26.5%; indel frequency (TIDE), ON - R1, sample EMCV IRESV15: 54.3%; indel frequency (TIDE), ON - R1, sample EMCV IRESV21: 50%; indel frequency (TIDE), ON - R1, sample EMCV WT IRES: 1.2%; indel frequency (TIDE), ON - R1, sample F2A - Acx-105: 1.2%; indel frequency (TIDE), ON - R1, sample T2A - Acx-105: 3.4%; indel frequency (TIDE), ON - R1, sample T2A-E2A-F2A - Acx-105: 4.5%; indel frequency, OFF - R1, Acr start codon ACG: 13.5%; indel frequency, OFF - R1, Acr start codon AUA: 9.8%; indel frequency, OFF - R1, Acr start codon AUG: 1.4%; indel frequency, OFF - R1, Acr start codon CUG: 7.8%; indel frequency, OFF - R1, Acr start codon GUG: 9.5%; indel frequency, OFF - R1, Acr start codon UUG: 11.7%; indel frequency, ON - R1, Acr start codon ACG: 32.5%; indel frequency, ON - R1, Acr start codon AUA: 25.4%; indel frequency, ON - R1, Acr start codon AUG: 5.6%; indel frequency, ON - R1, Acr start codon CUG: 22.3%; indel frequency, ON - R1, Acr start codon GUG: 26.3%; indel frequency, ON - R1, Acr start codon UUG: 27%; inhibition of OFF target editing, Acr start codon CUG: 50%; inhibition of ON target editing, Acr start codon CUG: 36%; reduction of SpCas9 editing, Acr start codon AUG: > 80%

For Acx137 (AcrVA1, wild type; AcrVA1_mbo), which indel frequency (TIDE), OFF - R1, sample EMCV WT IRES - Acx137 is on record?
Its indel frequency (TIDE), OFF - R1, sample EMCV WT IRES - Acx137 is 7.9%.

What about the indel frequency (TIDE), OFF - R1, sample T2A - Acx -137 of the same substance?
Its indel frequency (TIDE), OFF - R1, sample T2A - Acx -137 is 11%.

And the indel frequency (TIDE), ON - R1, sample EMCV WT IRES - Acx137?
The indel frequency (TIDE), ON - R1, sample EMCV WT IRES - Acx137 was 38.8%.

What about the indel frequency (TIDE), ON - R1, sample T2A - Acx -137 of the same substance?
Its indel frequency (TIDE), ON - R1, sample T2A - Acx -137 is 40.3%.
